B1: SH3 domain from Osteoclast stimulating factor 1, displayed on M13 phage (domain or fragment)
chain: GQVKVFRALYTFEPRTPDELYFEEGDIIYITDMSDTNWWKGTSKGRTGLIPSNYVAEQAE
B2: SH3 domain from Hck, displayed on M13 phage (domain or fragment)
chain: not shown
B3: SH3 domain #2 from Nck1, displayed on M13 phage (domain or fragment)
chain: DLNMPAYVKFNYMAEREDELSLIKGTKVIVMEKCSDGWWRGSYNGQVGWFPSNYVTEEGD
B4: SH3 domain from Fyn, displayed on M13 phage (domain or fragment)
chain: not shown
B5: SH3 domain from p85α, displayed on M13 phage (domain or fragment)
chain: AEGYQYRALYDYKKEREEDIDLHLGDILTVNKGSLVALGFSDGQEARPEEIGWLNGYNETTGERGDFPGTYVEYIGR
B6: SH3 domain from Yes, displayed on M13 phage (domain or fragment)
chain: not shown
B7: SH3 domain #3 from Intersectin 2, displayed on M13 phage (domain or fragment)
chain: SVGEEYIALYPYSSVEPGDLTFTEGEEILVTQKDGEWWTGSIGDRSGIFPSNYVKPKDQ
B8: SH3 domain from Lyn, displayed on M13 phage (domain or fragment)
chain: EQGDIVVALYPYDGIHPDDLSFKKGEKMKVLEEHGEWWKAKSLLTKKEGFIPSNYVAKLNT

Data on eight molecules can be found in paper PMC3379994 (2012).

Chain of His-tagged Sam68 (Src-associated in mitosis, 68 kDa) (Q07666 whole entry): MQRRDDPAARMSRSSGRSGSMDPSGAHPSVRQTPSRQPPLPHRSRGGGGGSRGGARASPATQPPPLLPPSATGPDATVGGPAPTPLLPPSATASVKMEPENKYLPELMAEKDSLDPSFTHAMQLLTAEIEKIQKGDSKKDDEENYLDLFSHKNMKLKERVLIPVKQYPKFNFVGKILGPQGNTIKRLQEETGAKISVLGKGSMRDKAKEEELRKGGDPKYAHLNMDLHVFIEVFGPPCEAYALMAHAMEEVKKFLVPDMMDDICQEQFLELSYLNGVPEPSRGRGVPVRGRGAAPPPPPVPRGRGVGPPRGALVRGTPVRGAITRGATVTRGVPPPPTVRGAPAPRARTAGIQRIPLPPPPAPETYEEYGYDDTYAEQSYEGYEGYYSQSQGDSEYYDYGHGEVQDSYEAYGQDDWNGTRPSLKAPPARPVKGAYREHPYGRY

This assay concerns the target His-tagged Sam68 (Src-associated in mitosis, 68 kDa) (human (cDNA from HEK293T cells), UniProt Q07666 1-443). Put plainly: ELISA.
Consider B1, for which binding was characterised by a dissociation constant (Kd) of 22 nM.

On to B2, for which the affinity, expressed as Kd, was 31 nM.

The molecule B3 came in with a Kd of 31 nM.

Regarding B4, the Kd worked out at 41 nM.

With B5, binding was characterised by a dissociation constant (Kd) of 13 nM.

The molecule B6 showed a Kd of 5.5 nM.

B7 returned a Kd of 59 nM.

Molecule B8 displayed a Kd of 7.9 nM.
